The experiment has as its target recombinant GST-FAM21 356–600. Nature of the experiment: SPR. (In general: In SPR one partner is held on a chip, and binding of the other changes the refractive index at the surface.)

With “MBP-CCDC93 (448–631) (from UniProt Q567U6 448-631) (domain or fragment)”, the equilibrium dissociation constant (Kd) (commonly the equilibrium constant for the complex coming apart) is 0.3 to 0.6 nM.
